Substrate in data set [1]: O=CC(=O)O
Description: spectrophotometric assay of pyruvate, coupled lactate dehydrogenase. The format is biochemical, Homo sapiens. The settings on record: saturating L-alanine as co-substrate; saturating PLP.

The data set “dynamic light scattering” concerns the molecule itself. Description: dynamic light scattering.
Substrate in data set [2]: C[C@H](N)C(=O)O
Briefly: spectrophotometric assay of pyruvate, coupled lactate dehydrogenase. The format is biochemical, Homo sapiens. Conditions: saturating glyoxylate as co-substrate; saturating PLP.

A word on the Km: it is the substrate concentration at which the rate is half of its maximum. For orientation: kcat means the number of substrate molecules converted per active site and unit of time at saturation. What is called kcat/Km is the turnover number divided by the Michaelis constant. One may read the stoichiometry N as a count of units in the complex or per binding partner.

B1: AGT-Mi (Homo sapiens; G161S/I340M/P11L) (protein)
chain: MASHKLLVTPLKALLKPLSIPNQLLLGPGPSNLPPRIMAAGGLQMIGSMSKDMYQIMDEIKEGIQYVFQTRNPLTLVISGSGHCALEAALVNVLEPGDSFLVGANGIWGQRAVDIGERIGARVHPMTKDPGGHYTLQEVEEGLAQHKPVLLFLTHGESSTSVLQPLDGFGELCHRYKCLLLVDSVASLGGTPLYMDRQGIDILYSGSQKALNAPPGTSLISFSDKAKKKMYSRKTKPFSFYLDIKWLANFWGCDDQPRMYHHTIPVISLYSLRESLALIAEQGLENSWRQHREAAAYLHGRLQALGLQLFVKDPALRLPTVTTVAVPAGYDWRDIVSYVMDHFDIEIMGGLGPSTGKVLRIGLLGCNATRENVDRVTEALRAALQHCPKKKL
For the protein B1, in data set [1], the Km stood at 630 ± 70 µM, the turnover number (kcat) is 58 ± 2 s⁻¹ and the kcat/Km was determined as 92000 ± 2000 M⁻¹ s⁻¹.

B2: alanine:glyoxylate aminotransferase variant S158L on the major allele (enzyme, human, UniProt P21549 1-392, looked up)
chain: MASHKLLVTPPKALLKPLSIPNQLLLGPGPSNLPPRIMAAGGLQMIGSMSKDMYQIMDEIKEGIQYVFQTRNPLTLVISGSGHCALEAALVNVLEPGDSFLVGANGIWGQRAVDIGERIGARVHPMTKDPGGHYTLQEVEEGLAQHKPVLLFLTHGELSTGVLQPLDGFGELCHRYKCLLLVDSVASLGGTPLYMDRQGIDILYSGSQKALNAPPGTSLISFSDKAKKKMYSRKTKPFSFYLDIKWLANFWGCDDQPRMYHHTIPVISLYSLRESLALIAEQGLENSWRQHREAAAYLHGRLQALGLQLFVKDPALRLPTVTTVAVPAGYDWRDIVSYVIDHFDIEIMGGLGPSTGKVLRIGLLGCNATRENVDRVTEALRAALQHCPKKKL
modifications: holo-form: pyridoxal 5'-phosphate in Schiff base linkage with the lysine at position 209; apo-form: without PLP
As to B2, the “stoichiometry N” value in “dynamic light scattering” was found to be 2.

B3: alanine:glyoxylate aminotransferase variant P319L on the major allele (enzyme, human, UniProt P21549 1-392, looked up)
chain: MASHKLLVTPPKALLKPLSIPNQLLLGPGPSNLPPRIMAAGGLQMIGSMSKDMYQIMDEIKEGIQYVFQTRNPLTLVISGSGHCALEAALVNVLEPGDSFLVGANGIWGQRAVDIGERIGARVHPMTKDPGGHYTLQEVEEGLAQHKPVLLFLTHGESSTGVLQPLDGFGELCHRYKCLLLVDSVASLGGTPLYMDRQGIDILYSGSQKALNAPPGTSLISFSDKAKKKMYSRKTKPFSFYLDIKWLANFWGCDDQPRMYHHTIPVISLYSLRESLALIAEQGLENSWRQHREAAAYLHGRLQALGLQLFVKDPALRLLTVTTVAVPAGYDWRDIVSYVIDHFDIEIMGGLGPSTGKVLRIGLLGCNATRENVDRVTEALRAALQHCPKKKL
modifications: holo-form: pyridoxal 5'-phosphate in Schiff base linkage with the lysine at position 209; apo-form: without PLP
On to B3, for which the “stoichiometry N” value in the data set “dynamic light scattering” stood at 2.

B4: alanine:glyoxylate aminotransferase variant G350D on the minor allele (enzyme, human, UniProt P21549 1-392, looked up)
chain: MASHKLLVTPLKALLKPLSIPNQLLLGPGPSNLPPRIMAAGGLQMIGSMSKDMYQIMDEIKEGIQYVFQTRNPLTLVISGSGHCALEAALVNVLEPGDSFLVGANGIWGQRAVDIGERIGARVHPMTKDPGGHYTLQEVEEGLAQHKPVLLFLTHGESSTGVLQPLDGFGELCHRYKCLLLVDSVASLGGTPLYMDRQGIDILYSGSQKALNAPPGTSLISFSDKAKKKMYSRKTKPFSFYLDIKWLANFWGCDDQPRMYHHTIPVISLYSLRESLALIAEQGLENSWRQHREAAAYLHGRLQALGLQLFVKDPALRLPTVTTVAVPAGYDWRDIVSYVMDHFDIEIMGDLGPSTGKVLRIGLLGCNATRENVDRVTEALRAALQHCPKKKL
modifications: holo-form: pyridoxal 5'-phosphate in Schiff base linkage with the lysine at position 209; apo-form: without PLP
As to B4, the “stoichiometry N” value in “dynamic light scattering” turned out to be 2.

B5: AGT-Ma (Homo sapiens; S218L) (protein)
chain: MASHKLLVTPPKALLKPLSIPNQLLLGPGPSNLPPRIMAAGGLQMIGSMSKDMYQIMDEIKEGIQYVFQTRNPLTLVISGSGHCALEAALVNVLEPGDSFLVGANGIWGQRAVDIGERIGARVHPMTKDPGGHYTLQEVEEGLAQHKPVLLFLTHGESSTGVLQPLDGFGELCHRYKCLLLVDSVASLGGTPLYMDRQGIDILYSGSQKALNAPPGTLLISFSDKAKKKMYSRKTKPFSFYLDIKWLANFWGCDDQPRMYHHTIPVISLYSLRESLALIAEQGLENSWRQHREAAAYLHGRLQALGLQLFVKDPALRLPTVTTVAVPAGYDWRDIVSYVIDHFDIEIMGGLGPSTGKVLRIGLLGCNATRENVDRVTEALRAALQHCPKKKL
Regarding B5, in data set [2], the Km amounted to 29000 ± 6000 µM, the turnover number (kcat) was determined as 2.7 ± 0.1 s⁻¹ and the kcat/Km worked out at 90 ± 20 M⁻¹ s⁻¹.

B6: alanine:glyoxylate aminotransferase variant G161S on the minor allele (enzyme, human, UniProt P21549 1-392, looked up)
chain: MASHKLLVTPLKALLKPLSIPNQLLLGPGPSNLPPRIMAAGGLQMIGSMSKDMYQIMDEIKEGIQYVFQTRNPLTLVISGSGHCALEAALVNVLEPGDSFLVGANGIWGQRAVDIGERIGARVHPMTKDPGGHYTLQEVEEGLAQHKPVLLFLTHGESSTSVLQPLDGFGELCHRYKCLLLVDSVASLGGTPLYMDRQGIDILYSGSQKALNAPPGTSLISFSDKAKKKMYSRKTKPFSFYLDIKWLANFWGCDDQPRMYHHTIPVISLYSLRESLALIAEQGLENSWRQHREAAAYLHGRLQALGLQLFVKDPALRLPTVTTVAVPAGYDWRDIVSYVMDHFDIEIMGGLGPSTGKVLRIGLLGCNATRENVDRVTEALRAALQHCPKKKL
modifications: holo-form: pyridoxal 5'-phosphate in Schiff base linkage with the lysine at position 209; apo-form: without PLP
In the case of B6, in the data set “dynamic light scattering”, the “stoichiometry N” value turned out to be 2.

B7: alanine:glyoxylate aminotransferase variant W108R on the minor allele (enzyme, human, UniProt P21549 1-392, looked up)
chain: MASHKLLVTPLKALLKPLSIPNQLLLGPGPSNLPPRIMAAGGLQMIGSMSKDMYQIMDEIKEGIQYVFQTRNPLTLVISGSGHCALEAALVNVLEPGDSFLVGANGIRGQRAVDIGERIGARVHPMTKDPGGHYTLQEVEEGLAQHKPVLLFLTHGESSTGVLQPLDGFGELCHRYKCLLLVDSVASLGGTPLYMDRQGIDILYSGSQKALNAPPGTSLISFSDKAKKKMYSRKTKPFSFYLDIKWLANFWGCDDQPRMYHHTIPVISLYSLRESLALIAEQGLENSWRQHREAAAYLHGRLQALGLQLFVKDPALRLPTVTTVAVPAGYDWRDIVSYVMDHFDIEIMGGLGPSTGKVLRIGLLGCNATRENVDRVTEALRAALQHCPKKKL
modifications: holo-form: pyridoxal 5'-phosphate in Schiff base linkage with the lysine at position 209; apo-form: without PLP
In the case of B7, the “stoichiometry N” value in “dynamic light scattering” was 2.

B8: alanine:glyoxylate aminotransferase variant S218L on the major allele (enzyme, human, UniProt P21549 1-392, looked up)
chain: MASHKLLVTPPKALLKPLSIPNQLLLGPGPSNLPPRIMAAGGLQMIGSMSKDMYQIMDEIKEGIQYVFQTRNPLTLVISGSGHCALEAALVNVLEPGDSFLVGANGIWGQRAVDIGERIGARVHPMTKDPGGHYTLQEVEEGLAQHKPVLLFLTHGESSTGVLQPLDGFGELCHRYKCLLLVDSVASLGGTPLYMDRQGIDILYSGSQKALNAPPGTLLISFSDKAKKKMYSRKTKPFSFYLDIKWLANFWGCDDQPRMYHHTIPVISLYSLRESLALIAEQGLENSWRQHREAAAYLHGRLQALGLQLFVKDPALRLPTVTTVAVPAGYDWRDIVSYVIDHFDIEIMGGLGPSTGKVLRIGLLGCNATRENVDRVTEALRAALQHCPKKKL
modifications: holo-form: pyridoxal 5'-phosphate in Schiff base linkage with the lysine at position 209; apo-form: without PLP
Regarding B8, in the data set “dynamic light scattering”, the “stoichiometry N” value amounted to 2.

B9: alanine:glyoxylate aminotransferase variant D183N on the major allele (enzyme, human, UniProt P21549 1-392, looked up)
chain: MASHKLLVTPPKALLKPLSIPNQLLLGPGPSNLPPRIMAAGGLQMIGSMSKDMYQIMDEIKEGIQYVFQTRNPLTLVISGSGHCALEAALVNVLEPGDSFLVGANGIWGQRAVDIGERIGARVHPMTKDPGGHYTLQEVEEGLAQHKPVLLFLTHGESSTGVLQPLDGFGELCHRYKCLLLVNSVASLGGTPLYMDRQGIDILYSGSQKALNAPPGTSLISFSDKAKKKMYSRKTKPFSFYLDIKWLANFWGCDDQPRMYHHTIPVISLYSLRESLALIAEQGLENSWRQHREAAAYLHGRLQALGLQLFVKDPALRLPTVTTVAVPAGYDWRDIVSYVIDHFDIEIMGGLGPSTGKVLRIGLLGCNATRENVDRVTEALRAALQHCPKKKL
modifications: holo-form: pyridoxal 5'-phosphate in Schiff base linkage with the lysine at position 209; apo-form: without PLP
Turning to B9, in “dynamic light scattering”, the “stoichiometry N” value was 2.

B10: alanine:glyoxylate aminotransferase variant S187F on the major allele (enzyme, human, UniProt P21549 1-392, looked up)
chain: MASHKLLVTPPKALLKPLSIPNQLLLGPGPSNLPPRIMAAGGLQMIGSMSKDMYQIMDEIKEGIQYVFQTRNPLTLVISGSGHCALEAALVNVLEPGDSFLVGANGIWGQRAVDIGERIGARVHPMTKDPGGHYTLQEVEEGLAQHKPVLLFLTHGESSTGVLQPLDGFGELCHRYKCLLLVDSVAFLGGTPLYMDRQGIDILYSGSQKALNAPPGTSLISFSDKAKKKMYSRKTKPFSFYLDIKWLANFWGCDDQPRMYHHTIPVISLYSLRESLALIAEQGLENSWRQHREAAAYLHGRLQALGLQLFVKDPALRLPTVTTVAVPAGYDWRDIVSYVIDHFDIEIMGGLGPSTGKVLRIGLLGCNATRENVDRVTEALRAALQHCPKKKL
modifications: holo-form: pyridoxal 5'-phosphate in Schiff base linkage with the lysine at position 209; apo-form: without PLP
In the case of B10, in the data set “dynamic light scattering”, the “stoichiometry N” value amounted to 2.

B11: AGT-Ma (Homo sapiens; P319L) (protein)
chain: MASHKLLVTPPKALLKPLSIPNQLLLGPGPSNLPPRIMAAGGLQMIGSMSKDMYQIMDEIKEGIQYVFQTRNPLTLVISGSGHCALEAALVNVLEPGDSFLVGANGIWGQRAVDIGERIGARVHPMTKDPGGHYTLQEVEEGLAQHKPVLLFLTHGESSTGVLQPLDGFGELCHRYKCLLLVDSVASLGGTPLYMDRQGIDILYSGSQKALNAPPGTSLISFSDKAKKKMYSRKTKPFSFYLDIKWLANFWGCDDQPRMYHHTIPVISLYSLRESLALIAEQGLENSWRQHREAAAYLHGRLQALGLQLFVKDPALRLLTVTTVAVPAGYDWRDIVSYVIDHFDIEIMGGLGPSTGKVLRIGLLGCNATRENVDRVTEALRAALQHCPKKKL
Take B11: in data set [1], the Km was 110 ± 20 µM, the kcat is 26.2 ± 0.7 s⁻¹ and the kcat/Km stood at 238000 ± 44000 M⁻¹ s⁻¹.

B12: alanine:glyoxylate aminotransferase variant G161C on the minor allele (enzyme, human, UniProt P21549 1-392, looked up)
chain: MASHKLLVTPLKALLKPLSIPNQLLLGPGPSNLPPRIMAAGGLQMIGSMSKDMYQIMDEIKEGIQYVFQTRNPLTLVISGSGHCALEAALVNVLEPGDSFLVGANGIWGQRAVDIGERIGARVHPMTKDPGGHYTLQEVEEGLAQHKPVLLFLTHGESSTCVLQPLDGFGELCHRYKCLLLVDSVASLGGTPLYMDRQGIDILYSGSQKALNAPPGTSLISFSDKAKKKMYSRKTKPFSFYLDIKWLANFWGCDDQPRMYHHTIPVISLYSLRESLALIAEQGLENSWRQHREAAAYLHGRLQALGLQLFVKDPALRLPTVTTVAVPAGYDWRDIVSYVMDHFDIEIMGGLGPSTGKVLRIGLLGCNATRENVDRVTEALRAALQHCPKKKL
modifications: holo-form: pyridoxal 5'-phosphate in Schiff base linkage with the lysine at position 209; apo-form: without PLP
As to B12, the “stoichiometry N” value in the data set “dynamic light scattering” was 2.
